Experimental findings from patent US20240084003A1 (SIMCERE ZAIMING PHARMACEUTICAL, published 2024) are described below.

The target of assay [1] is T1, monkey CD22 protein (ACROBiosystems, catalog number SI2-R52Ha) (monkey, UniProt F6W485 20-688).
T1 construct: commercial protein; also called monkey CD22-ECD; monkey CD22-ECD-His
T1 sequence: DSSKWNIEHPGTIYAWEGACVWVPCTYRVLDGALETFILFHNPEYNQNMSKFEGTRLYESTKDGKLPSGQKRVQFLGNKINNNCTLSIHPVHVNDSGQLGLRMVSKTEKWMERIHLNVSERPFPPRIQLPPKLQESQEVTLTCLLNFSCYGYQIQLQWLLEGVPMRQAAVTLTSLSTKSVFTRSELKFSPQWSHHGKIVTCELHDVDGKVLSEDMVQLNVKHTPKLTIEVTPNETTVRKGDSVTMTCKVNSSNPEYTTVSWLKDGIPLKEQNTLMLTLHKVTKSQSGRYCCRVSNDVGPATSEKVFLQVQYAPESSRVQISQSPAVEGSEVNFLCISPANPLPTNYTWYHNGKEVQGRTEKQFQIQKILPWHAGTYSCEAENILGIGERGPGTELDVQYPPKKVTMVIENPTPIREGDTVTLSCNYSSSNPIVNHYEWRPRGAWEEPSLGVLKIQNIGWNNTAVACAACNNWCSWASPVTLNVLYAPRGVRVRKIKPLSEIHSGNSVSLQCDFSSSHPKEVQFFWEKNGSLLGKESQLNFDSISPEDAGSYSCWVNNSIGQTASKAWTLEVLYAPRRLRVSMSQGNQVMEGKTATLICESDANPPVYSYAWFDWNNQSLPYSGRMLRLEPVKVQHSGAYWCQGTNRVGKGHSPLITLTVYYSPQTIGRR
Put plainly: ELISA, coated monkey CD22 protein, antibody 100 nM. The essentials:
(§1)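 Coat 2 μg/mL CD22 in PBS, overnight 4° C; block PBS/2% BSA 2 h RT. Ab 2 h 37° C; HRP anti-species secondary 2 h 37° C. TMB 30 min RT, stop 1.0 N HCl.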
(ELISA stands for enzyme-linked immunosorbent assay.)

Assay [2] deals with T1, monkey CD22 protein (ACROBiosystems, …). Put plainly: ELISA, coated monkey CD22 protein, antibody 0.1 nM. The essentials: as §1
Assay [3] concerns the target T2, CD22 on cynomolgus monkey peripheral blood B cells (cynomolgus monkey (Macaca fascicularis)).
T2 construct: whole, on cells; also called cynomolgus monkey B cells
Put plainly: FACS, cynomolgus PBMC, CD20+ B cells, antibody 100 nM. In short, it runs like this:
(§2)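 Binding is expressed as the proportion of CD20-positive B cells that became APC-positive after indirect labelling. Cells were cyno PBMC exposed to the antibody for 1 h at RT, then to anti-human Fc secondary for 30 min.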

The target in assay [4] is T1, monkey CD22 protein (ACROBiosystems, …). Briefly: ELISA, coated monkey CD22 protein, antibody 0.0001 nM. In short, it runs like this: as §1
Assay [5] has the same target. Briefly: ELISA, coated monkey CD22 protein, antibody 0.001 nM. In short, it runs like this:
as §1

The target is the same in assay [6]. Put plainly: ELISA, coated monkey CD22 protein, antibody 0.00001 nM. The essentials: as §1
For assay [7] the target is unchanged. Put plainly: ELISA, coated monkey CD22 protein, antibody 10 nM. In short, it runs like this:
as §1

In assay [8] the target is T2, CD22 on cynomolgus monkey peripheral …. Put plainly: FACS, cynomolgus PBMC, CD20+ B cells, antibody 1 nM. The essentials: as §2
The target is the same in assay [9]. Put plainly: FACS, cynomolgus PBMC, CD20+ B cells, antibody 10 nM. The essentials:
as §2

Assay [10] addresses T1, monkey CD22 protein (ACROBiosystems, …). Put plainly: ELISA, coated monkey CD22 protein, antibody 0.01 nM. In short, it runs like this: as §1

B1: F2.205.9 (antibody, human IgG1, lambda, V domains shown)
VH: QVTLKESGPGILQPSQTLSLTCSFSGFSLSTSGMGVGWIRQPSGKGLEWLAHIWWDDDEYYNPALKSRLTISKDTSKNQVFLKIANVDTADTATYYCARISIPYGYYDWFFDVWGTGTTVTVSA
VL: QAVVTQESALTTSPGETVTLTCRSSTGAVTTRNYANWVQEKPDHLFTGLIGGTNNRAPGVPARFSGSLIGDKAALTITGAQTEDEAIYFCALWYSNHFIFGSGTKVTVLG
notes: human-murine chimeric IgG1 lambda; VL name legible
Take B1: the OD450 in [1] was determined as 2.33 OD450; in [2], 2.21 OD450; in [4], 0.16 OD450; in assay [5], 0.63 OD450; in assay [6], 0.08 OD450; in [7], 2.28 OD450. This molecule registered an OD450 in [10] of 1.78 OD450. The “Proportion of chimeric antibody positive cells to B cells (%)” value (shortened to “Proportion … (%)”) is 46% in [3], 40% in [8] and 41% in [9].

B2: F2.151.13 (antibody, human IgG1, lambda, V domains shown)
VH: QVHLQQPGTELMKPGASVKLSCKATGYTFRDYWLEWVKQRPGHGLEWIGEILPGSGNAYYNEKFKGKATFTADTSSNTAYMQLSSLTTEDSAIYYCARVYSNWYFDAWGKGTTVTVSS
VL: QAVVTQESALTTSPGETVTLTCRSSTGAVTTSNYANWVQEKPDHLFTGLIGGTNNQAPGVPARFSGSLIGDKAALTISGAQTEDEAIYFCALWFSNHWVFGGGTKLTVLG
notes: human-murine chimeric IgG1 lambda
Regarding B2, the OD450 turned out to be 2.77 OD450 in assay [1]; 1.6 OD450 in assay [2]; 0.1 OD450 in [4]; 0.27 OD450 in assay [5]; 0.07 OD450 in assay [6]; 1.89 OD450 in assay [7]. This molecule also showed an OD450 in assay [10] of 0.94 OD450. For the same molecule, the “Proportion … (%)” value was 60% in [3], 38% in assay [8] and 48% in [9].

B3: HA22-hIgG1 (antibody, V domains shown)
VH: EVQLVESGGGLVKPGGSLKLSCAASGFAFSIYDMSWVRQTPEKCLEWVAYISSGGGTTYYPDTVKGRFTISRDNAKNTLYLQMSSLKSEDTAMYYCARHSGYGTHWGVLFAYWGQGTLVTVSA
VL: DIQMTQTTSSLSASLGDRVTISCRASQDISNYLNWYQQKPDGTVKLLIYYTSILHSGVPSRFSGSGSGTDYSLTISNLEQEDFATYFCQQGNTLPWTFGCGTKLEIKR
On to B3, for which the OD450 in assay [1] came out at 2.2 OD450; in [2] it was 2.24 OD450; in assay [4] it was 0.14 OD450; in assay [5] it was 0.47 OD450; in [6], 0.08 OD450; in [7], 2.41 OD450. Besides, in assay [10], the OD450 is 1.54 OD450. The “Proportion … (%)” value in [3] was 93%; in assay [8] it was 33%; in assay [9], 89%.

B4: F2.55.1 (antibody, human IgG1, lambda, V domains shown)
VH: QVTLKESGPGILQPSQTLSLTCSFSGFSLSTFPLGVGWIRQPSGKGLEWLAHVWWNDDDYYNPALKSRLTISKDTSNTRVFLSVASVDTAETATYYCARLNWDRWYFDVWGTGTTVTVSS
VL: QLVLTQSSSASFSLGASAKLTCTLSSQHSAYTVEWYQQQPLKPPKYVMELKKDGSHSTGDGIPDRFSGSSSGADRYLSISNIQPEDEAIYICGVGDTVKEQFVFGGGTKVTVLG
notes: as for B1
In the case of B4, the OD450 in assay [1] was 1.91 OD450; in assay [2], 1.73 OD450; in [4], 0.07 OD450; in assay [5], 0.18 OD450; in assay [6], 0.06 OD450; in [7], 2 OD450. In assay [10], this molecule displayed an OD450 of 0.85 OD450. Also, the “Proportion … (%)” value came to 66% in assay [3], 22% in assay [8] and 28% in assay [9].
